Measured values reported in the supplement of paper PMC10567573.

B1: CHMP4C (parent)
chain: SSKSRAAPSPQEALVRLRETEEML

Variants of: B1
Assay: protein stability index of a GFP-peptide fusion (GPS, HEK-293T) (PSI 1-6); higher = more stable
Settings: c terminus: a fixed tail appended
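Also: lentivirally expressed fusions sorted by FACS into six bins by GFP to DsRed ratio, PSI derived from sequencing read proportions per bin multiplied by bin number.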

Row | Variant | protein stability index
1 | SSKSRAAPDPQEALVRLRETEEML | 1.51
2 | SSKSRAAPRPQEALVRLRETEEML | 3.19
3 | SSKSRAAPIPQEALVRLRETEEML | 3.22
4 | SSKSRAAPAPQEALVRLRETEEML | 2.38
5 | SSKSRAAPTPQEALVRLRETEEML | 1.94
6 | SSKSRAAPVPQEALVRLRETEEML | 3.85
7 | SSKSRAAPCPQEALVRLRETEEML | 1.54
8 | SSKSRYAPSPQEALVRLRETEEML | 4.65
9 | SSKSRFAPSPQEALVRLRETEEML | 2.83
10 | SSKSRKAPSPQEALVRLRETEEML | 1.8
11 | SSKSRNAPSPQEALVRLRETEEML | 1.61
12 | SSKSRHAPSPQEALVRLRETEEML | 1.28
13 | SSKSRIAPSPQEALVRLRETEEML | 2.15
14 | SSKSRDAPSPQEALVRLRETEEML | 1.81
15 | SSKSRRAPSPQEALVRLRETEEML | 1.96
16 | SSKSRAAPSPCEALVRLRETEEML | 1.78
17 | SSKSRAAPSPVEALVRLRETEEML | 3.06
18 | SSKSRAAPSPAEALVRLRETEEML | 2.68
19 | SSKSRAAPSPTEALVRLRETEEML | 1.16
20 | SSKSRAAPSPKEALVRLRETEEML | 1.9
21 | SSKSRAAPSPFEALVRLRETEEML | 1.01
22 | SSKSRAAPSPPEALVRLRETEEML | 3.7
23 | SSKSRAAPSPQEALVRLPETEEML | 5.12
24 | SSKSRAAPSPQEALVRLFETEEML | 1.83

Row | Variant | protein stability index
25 | SSKSRAAPSPQEALVRLYETEEML | 2.45
26 | SSKSRAAPSPQEALVRLSETEEML | 2.17
27 | SSKSRAAPSPQEALVRLQETEEML | 2.57
28 | SSKSRAAPSPQEALVRLHETEEML | 5.68
29 | SSKSRAAPSPQEALVRLLETEEML | 4.8
30 | SSKSRAAPSPQEALVRLEETEEML | 4.89
31 | SSKSRAAPSPQEALVRLKETEEML | 2.15
32 | SSKSRAAPSPQEALVRLDETEEML | 5.46
33 | SSKSRAAPSPQEALVRLNETEEML | 1.8
34 | SSKSRAAPSPQEALVRLAETEEML | 1.51
35 | SSKSRAAPSPQSALVRLRETEEML | 2.06
36 | SSKSRAAPSPQVALVRLRETEEML | 2.81
37 | SSKSRAAPSPQGALVRLRETEEML | 2.23
38 | SSKSRAAPSPQKALVRLRETEEML | 4.3
39 | SSKSRAAPSPQLALVRLRETEEML | 3.27
40 | SSKSRAAPSPQCALVRLRETEEML | 2.96
41 | SSKSRAAPSPQWALVRLRETEEML | 2.67
42 | SSKSRAAPSPQMALVRLRETEEML | 2.05
43 | SSKSRAAPSPQHALVRLRETEEML | 3.06
44 | SSKSRAAPSPQFALVRLRETEEML | 2.75
45 | SSKSRAAPSPQEALVELRETEEML | 2.24
46 | SSKSRAAPSPQEALVWLRETEEML | 2.45
47 | SSKSRAAPSPQEALVQLRETEEML | 2.49
48 | SSKSRAAPSPQEALVGLRETEEML | 3.79

Row | Variant | protein stability index
49 | SSKSRAAPSPQEALVYLRETEEML | 2.22
50 | SSKSRAAPSPQEALVTLRETEEML | 4.39
51 | SSKSRAAPSPQEALVHLRETEEML | 1.63
52 | SSKSRAAPSPQEALVDLRETEEML | 1.98
53 | SSKSRAAPSRQEALVRLRETEEML | 4.01
54 | SSKSRAAPSCQEALVRLRETEEML | 3.05
55 | SSKSRAAPSHQEALVRLRETEEML | 4.21
56 | SSKSRAAPSQQEALVRLRETEEML | 4.58
57 | SSKSRAAPSKQEALVRLRETEEML | 4.6
58 | SSKSRAAPSNQEALVRLRETEEML | 4.79
59 | SSKSRAAPSSQEALVRLRETEEML | 3.85
60 | SSKSRAAPSYQEALVRLRETEEML | 2.99
61 | SSKSRAAPSTQEALVRLRETEEML | 4.26
62 | SSKSRAAPSWQEALVRLRETEEML | 1.67
63 | SSKSRAAPSVQEALVRLRETEEML | 1.81
64 | SSKSRAAPSEQEALVRLRETEEML | 3.41
65 | SSKSRAAPSPQEHLVRLRETEEML | 3.99
66 | SSKSRAAPSPQEDLVRLRETEEML | 5.58
67 | SSKSRAAPSPQEGLVRLRETEEML | 3.34
68 | SSKSRAAPSPQELLVRLRETEEML | 2.06
69 | SSKSRAAPSPQEKLVRLRETEEML | 4.47
70 | SSKSRAAPSPQEQLVRLRETEEML | 4.8
71 | SSKSRAAPSPQEYLVRLRETEEML | 2.3
72 | SSKSRAAPSPQECLVRLRETEEML | 1.82

Row | Variant | protein stability index
73 | SSKSRAAPSPQEWLVRLRETEEML | 3.33
74 | SEKSRAAPSPQEALVRLRETEEML | 1.86
75 | STKSRAAPSPQEALVRLRETEEML | 1.78
76 | SAKSRAAPSPQEALVRLRETEEML | 2.44
77 | SCKSRAAPSPQEALVRLRETEEML | 2.38
78 | SSKDRAAPSPQEALVRLRETEEML | 1.4
79 | SSKTRAAPSPQEALVRLRETEEML | 2.58
80 | SSKSRAAPSPQEALVRERETEEML | 5.68
81 | SSKSRAAPSPQEALVRSRETEEML | 5.01
82 | SSKSRAAPSPQEALVRGRETEEML | 5.31
83 | SSKSRAAPSPQEALVRHRETEEML | 4.79
84 | SSKSRAAPSPQEALVRNRETEEML | 4.59
85 | SSKSRAAPSPQEALVRYRETEEML | 4.4
86 | SSKSRAAPSPQEALVRARETEEML | 4.71
87 | SSKSRAAPSPQEALVRRRETEEML | 5.53
88 | SSKSRAAPSPQEALVRFRETEEML | 4.28
89 | SSKSRAAPSPQEALVRIRETEEML | 1.76
90 | SSKSRAAPSPQEALVRTRETEEML | 5.6
91 | HSKSRAAPSPQEALVRLRETEEML | 1.97
92 | VSKSRAAPSPQEALVRLRETEEML | 3.02
93 | ESKSRAAPSPQEALVRLRETEEML | 1.3
94 | NSKSRAAPSPQEALVRLRETEEML | 2.38
95 | SSKSRAAPSPQEALKRLRETEEML | 2.48
96 | SSKSRAAPSPQEALDRLRETEEML | 1.85

Row | Variant | protein stability index
97 | SSKSRAAPSPQEALMRLRETEEML | 2.17
98 | SSKSRAAPSPQEALPRLRETEEML | 4.34
99 | SSKSRAAPSPQEALQRLRETEEML | 3.07
100 | SSKSRAAPSPQEALSRLRETEEML | 2.18
101 | SSKSRAAPSPQEALVRLREWEEML | 3.45
102 | SSKSRAAPSPQEALVRLREPEEML | 5.12
103 | SSKSRAAPSPQEALVRLREDEEML | 2.08
104 | SSKSRAAPSPQEALVRLREQEEML | 4.83
105 | SSKSRAAPSPQEALVRLREIEEML | 3.27
106 | SSKSRAAPSPQEALVRLRECEEML | 4.19
107 | SSKSRAAPSPQEALVRLREVEEML | 3.14
108 | SSWSRAAPSPQEALVRLRETEEML | 1.74
109 | SSASRAAPSPQEALVRLRETEEML | 1.97
110 | SSTSRAAPSPQEALVRLRETEEML | 1.79
111 | SSDSRAAPSPQEALVRLRETEEML | 3.17
112 | SSKSRAAPSPQEALVRLRITEEML | 4.1
113 | SSKSRAAPSPQEALVRLRRTEEML | 3.52
114 | SSKSRAAPSPQEALVRLRNTEEML | 2.27
115 | SSKSRAAPSPQEALVRLRATEEML | 2.6
116 | SSKSRAAPSPQEALVRLRPTEEML | 4.63
117 | SSKSRAAPSPQEALVRLRKTEEML | 3.19
118 | SSKSRAAPSPQEALVRLRGTEEML | 2.44
119 | SSKSRAAPSPQEALVRLRWTEEML | 2.36
120 | SSKSRAAPSPQEALVRLRSTEEML | 3.01

Row | Variant | protein stability index
121 | SSKSRAAPSPQEALVRLRQTEEML | 1
122 | SSKSRAAPSPQEALVRLRYTEEML | 1.97
123 | SSKSRAAPSPQEALVRLRHTEEML | 2.9
124 | SSKSRAAPSPQEALVRLRCTEEML | 2.66
125 | SSKSRAAPSPQEALVRLRETQEML | 3.95
126 | SSKSRAAPSPQEALVRLRETNEML | 4.49
127 | SSKSRAAPSPQEALVRLRETWEML | 2.39
128 | SSKSRAAPSPQEALVRLRETDEML | 4
129 | SSKSRAAPSPQEALVRLRETGEML | 3.63
130 | SSKSRAAPSPQEALVRLRETFEML | 3.21
131 | SSKSRAAPSPQEALVRLRETTEML | 2.81
132 | SSKSRAAPSPQEALVRLRETAEML | 4.28
133 | SSKSRAAPSPQEALVRLRETSEML | 4.09
134 | SSKSRAAPSPQEALVRLRETIEML | 2.83
135 | SSKSRAAPSPQEALVRLRETMEML | 4.23
136 | SSKSRAAPSPQEALVRLRETYEML | 2.3
137 | SSKSRAAPSPQEALVRLRETEEAL | 2.07
138 | SSKSRAAPSPQEALVRLRETEEHL | 4.34
139 | SSKSRAAPSPQEALVRLRETEEKL | 2.15
140 | SSKSRAAPSPQEALVRLRETEEFL | 2.24
141 | SSKSRAAPSPQEALVRLRETEEEL | 2.08
142 | SSKSRAAPSPQEALVRLRETEEQL | 2.38
143 | SSKSRAAPSPQEALVRLRETEEPL | 4.44
144 | SSKSRAAPSPQEALVRLRETEEDL | 4.26

Row | Variant | protein stability index
145 | SSKSRAAPSPQEALVRLRETEETL | 3.55
146 | SSKSRAAPSPQEALVRLRETEESL | 3.95
147 | SSKSGAAPSPQEALVRLRETEEML | 1.3
148 | SSKSLAAPSPQEALVRLRETEEML | 1.48
149 | SSKSDAAPSPQEALVRLRETEEML | 2.36
150 | SSKSTAAPSPQEALVRLRETEEML | 2.17
151 | SSKSCAAPSPQEALVRLRETEEML | 1.78
152 | SSKSRAAPSPQEAWVRLRETEEML | 1.42
153 | SSKSRAAPSPQEATVRLRETEEML | 4.6
154 | SSKSRAAPSPQEAYVRLRETEEML | 2.49
155 | SSKSRAAPSPQEAHVRLRETEEML | 4.46
156 | SSKSRAAPSPQEAAVRLRETEEML | 3.39
157 | SSKSRAAPSPQEACVRLRETEEML | 2.06
158 | SSKSRAAPSPQEAMVRLRETEEML | 2.41
159 | SSKSRAAPSPQEAFVRLRETEEML | 4.77
160 | SSKSRAAPSPQEASVRLRETEEML | 4.33
161 | SSKSRAAPSPQEARVRLRETEEML | 2.92
162 | SSKSRAAPSPQEAPVRLRETEEML | 5.2
163 | SSKSRAAPSPQEAIVRLRETEEML | 2.32
164 | SSKSRAAPSPQEAVVRLRETEEML | 3
165 | SSKSRAAPSPQEAKVRLRETEEML | 4.46
166 | SSKSRAAPSPQEADVRLRETEEML | 4.96
167 | SSKSRAALSPQEALVRLRETEEML | 2.46
168 | SSKSRAACSPQEALVRLRETEEML | 1.87

Row | Variant | protein stability index
169 | SSKSRAAWSPQEALVRLRETEEML | 2.56
170 | SSKSRAANSPQEALVRLRETEEML | 2.54
171 | SSKSRAAQSPQEALVRLRETEEML | 1.95
172 | SSKSRAAVSPQEALVRLRETEEML | 4
173 | SSKSRATPSPQEALVRLRETEEML | 4.48
174 | SSKSRAPPSPQEALVRLRETEEML | 1.03
175 | SSKSRAQPSPQEALVRLRETEEML | 2.32
176 | SSKSRAKPSPQEALVRLRETEEML | 1.45
177 | SSKSRAMPSPQEALVRLRETEEML | 3.21
178 | SSKSRAVPSPQEALVRLRETEEML | 2.56
179 | SSKSRAAPSPQEALVRLRETEIML | 2.92
180 | SSKSRAAPSPQEALVRLRETEWML | 1.71
181 | SSKSRAAPSPQEALVRLRETETML | 3.01
182 | SSKSRAAPSPQEALVRLRETEQML | 2.31
183 | SSKSRAAPSPQEALVRLRETEPML | 4.66
184 | SSKSRAAPSPQEALVRLRETEFML | 2.05
185 | SSKSRAAPSPQEALVRLRETEDML | 2.14
186 | SSKSRAAPSPQEALVRLRETEVML | 2.84
187 | SSKSRAAPSPQEALVRLRETEGML | 2.44
188 | SSKSRAAPSPQEALVRLRETEMML | 1.82
